assay: yeast display, Sf9 membrane polyspecificity reagent, FACS + sequencing; frameworks hold sequencing errors
Summary of the method: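 After 36–48 hours of galactose induction, yeast (Saccharomyces cerevisiae BJ5465) displaying a synthetic nanobody library were stained at 4 °C for 1 hour with 10% biotinylated, detergent-solubilized Sf9 membrane reagent. Streptavidin microbeads enriched the stained cells before FACS sorting into low and high (top ~1%) gates on anti-HA and streptavidin fluorescence. Each clone's polyreactivity label reflects its gate of origin.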

Sequence | polyreactivity (PSR sort gate)
QDQLVESGGCLVQAGGSLPLSCAASVFTFSNNVMGWYRQAPGQVRELVATLSKSGGSTYYAVSVKVRFTISRDKAKNSVYLQMNSLNPEATEVYYCASRFGDYGRFAYWGQGTQVSVSS | high polyreactivity
QDQLVESGGCLVQAGGSLRLSCAASGGTFLYYAMGWYRQAPGKERELVAAISRGGSTHYADSVKGRFTISRDNAKNTVYLQMNSLKPEDTAVYYCAAVRSHRKRINFYDYWGQGTQVTVSS | low polyreactivity
QDQLVESGGCLVQAGGSLRLSCAASGGTFRVYAMGWYRQAPGKERELVAAITGRGGSTYYADSVKGRFTISRDNAKNTVYLQMNSLKPDDTAVDYCNKEPELVEYDYWGQGTQVTVSS | low polyreactivity
QDQLVESGGFLVQAGGSLRLSCAASGRTFSYYDMGWYRQAPGKERELVAAISSGGSTNYADSVKARFTISRENAKNTFYLQMNSLKPEDTGVSYCATSCIWGYGRVRWVTYYYWGQGTQVTVSS | low polyreactivity
QDQLVESGGGFVQAGGSLRLSCAASGFIYDNEMGWYRQAPGKERELVASITSRGGNTYYADSVKGRFTISRDNAKNTVYLQMNSLKPEETAVYYCAARYYWGSYGPYGYWGQGTQLTVSS | high polyreactivity
QDQLVESGGGFVQAGGSLRLSCAASGFTFGSNTMGWSRQAPGKERELVAAITTSGDSTYYADSVKGRFTLSRDNAKNTVYLQMNSLKPEDTAVYDCAARRGYPRFEYWGQGTQVTVSS | high polyreactivity
QDQLVESGGGIVQAGGSLRLSCAASGFTFLYSAMGWYRQAPGKERELVAAINRSGGRTYYADSVKGRFTISRDNAKNTVYLQMNSLKPEDTAVYYCATDTYFRSSVVFRYDYWGQGTQVTVSS | high polyreactivity
QDQLVESGGGIVQAGGSLRLSCAASGSTFWHNVMGWYRQAPGKERELVAAISTAGSSTYYADSVKGRFTISRDHAKNTVYLQMNSLKPEDTAVYYCAAQWPKSKYGYWGQGTQVTVSS | high polyreactivity
QDQLVESGGGLDQAGCTLRLSCAASVGTFRYYAMGWYRQAPGKERELVASISSGGSTNYADSVKGRFTISRDNAKNTVYLQMNSLKPEDTAVYYCNADPRRPVTSYDYWGQGTQVTVSS | low polyreactivity
QDQLVESGGGLDQAGGSLRLSCAAYGSTFGYYALGWSRQAPGKERELVAAISWSGSNTYYADSVKGRFTISRDNAKNTVYLQMNSLTPEDTAVYYCAAVYRGSRAWGYDYWGQGTQVTVSS | high polyreactivity
QDQLVESGGGLLQAGASLRLSCAASGFIFDSYAIGWDRQAPGKERELVAAITSSGSSTYYADSVKGRFTISRDNAKNTVYLQMNSLKPEDTAVYYCNAVYSATVVAWRFGYWGQGTQVTVSS | high polyreactivity
QDQLVESGGGLVQAGASLRLSCAASGFIFVFNAMGWYRQAPGKERELVAAINGGDITNYADSVKGRFTISRDNAKNTVYLQMTSLKPEDTAVYYCAADGEDSLWTGYDYDYWGQGTQVTVSS | low polyreactivity
QDQLVESGGGLVQAGASLRLSCAASGSIFYHNTMGWYRQAPGKERELLTYYADSVKRRFTISRDNAKNTVYLQMNSLKPEDTAVYYCAASPVSRTGPGDYDYWGQGTQVTVSS | low polyreactivity
QDQLVESGGGLVQAGCSLRLSCDASGSTSYGYAMGWYRQAPGKERELVASISYSGSSTYYADSVKGRFTFSRDNAKNTVYLQMNSLKPEDTAVYYCNAKVYPCVGPKHRYDYWGQCTQVTVSS | low polyreactivity
QDQLVESGGGLVQAGGILRLICAASGLTFASYGMGWYRQAPGKERELVAAISSSGGITYYADSVKGRFTISRDNAKNTVYLQMNSLKPEDTAVYYCAAAKRSGYTGFKYYYWGQGTQVTVSS | high polyreactivity
QDQLVESGGGLVQAGGNLRLSCAASGSIFSDYTIGWYRQAPGKERELVADITLSSGSTYYADSVKGRFTISRDNAKNTVYLQMNSLKPEDTAVYYCAADGWYYFRSGDFEYDYWGHGTQVTVSS | low polyreactivity
QDQLVESGGGLVQAGGRLRLICAAAGLIFVSNAMGWYRQAPGKERELFASISWSGGSTYYADSVKGRFTISRDNAKNTVYLQMNSLKPEDTAVYYCAAAKYVTYLSIYYYWGQGTQVTVSS | high polyreactivity
QDQLVESGGGLVQAGGRLRLSCAASGFIFWLYAMGWYRQAPGKERELVASINWSGGDTYYADSVKGRFTISRDNAKNTVYLQMNSLKPEDTAVYYCAADWSNLGAYDYWGQGTQVTVSS | low polyreactivity
QDQLVESGGGLVQAGGRLRLSCAASGRTFSSYAMGWYRQAPGKERELVAAISRRGSSTFYADSVKGRFTISRDNAKNTVYLQMNSLKPEDTAVYYCNADLSGQTRYDYWVQGTQVTVSS | high polyreactivity
QDQLVESGGGLVQAGGRLRLSCAAYGRIFRRYAMGWYRQAPGKEREFVAAISSGGSTYYADSVKVRFTISRDNAKKYRLFTAEQPETGRYRGLLLRCVRYDVNVYDYWGQGTQVTVSS | low polyreactivity
QDQLVESGGGLVQAGGRLRLTCAASGAIFSNYAMGWYRQAPGKERELLAAITNGVSTNYAVSVKGRLTISRDNAKNTVFLQMNSLKPEDTAVYYCAAVGYRATYRVGGYLRYYYWGQGTQVTVSS | high polyreactivity
QDQLVESGGGLVQAGGSHRLSCAASGRTFYLYAMGWYRHAPGKERELVAGISYRGSRTYYADSVKVRFTISRDYEKNTVYLQMNSLKPEDTAVYYCATPAGQAAYDYWGQGTQVTVSS | high polyreactivity

Sequence | polyreactivity (PSR sort gate)
QDQLVESGGGLVQAGGSLLLSCAASGIIITGNAMVWYRQAPGKERELVAGITGSGGNTYYADCVKGRYTISRDNAKNTFYLQMNSLKPEDTGVYYCAARRHIFLLIIWSGRVDYWGQGTQVTVSS | low polyreactivity
QDQLVESGGGLVQAGGSLRISCAASGRIFRRNTMGRYRQAPGKERELVADINSSDGDTYYADSVKGRFTISRDNAKNTVYLQMNSLKPEDTAVYYCAADLSPLGEMDYWGQGTQVTVSS | low polyreactivity
QDQLVESGGGLVQAGGSLRLICAASGRTFITYSMGWYRQAPGKERELVAAISWNGGTTYYADSVKGRFTISRDNAKNTVYIQMNSLKPEVTAVYYCAGYRWYSAARMGYWGQGTQVTVSS | high polyreactivity
QDQLVESGGGLVQAGGSLRLICAASGSIFDFYTMGWYRQAPGKERELVAAITYSGGRTYYADSVKGRFTISRDNAKNTVYLQMNSLKPEDTAVYYCAASTGSSAYDDYWGQGTQVTVSS | high polyreactivity
QDQLVESGGGLVQAGGSLRLICAASGSIFSKKAMGLYRQAPGKERELVAAISASGASTYYADSVKGRFTISRDNEKNTVYLQMNSLKPEDTSVYYCNADVSGVSSYGLSYEFYYWGQGTQVTVSS | low polyreactivity
QDQLVESGGGLVQAGGSLRLSCAACGIMFGKYAMGWYREAPGKERELVAAITWSGGRTYYADSVTGRFTISRANAKNTVYLPMNSLKPEDTAVYYCAADVKYGYDWGQGTQVTVSS | high polyreactivity
QDQLVESGGGLVQAGGSLRLSCAASGFTFAENAMGWYRQATGKEGELVAAISGSGGSTYYADSVKGRFTISRDNAKNTVYLQMNSLKPEDTAVYYCAADKPRPQYTDDDYWGQGTQVTVSS | high polyreactivity
QDQLVESGGGLVQAGGSLRLSCAASGFTFARNGMGWYRQAPVKEREFVAAITRSGGRTYYADSVKGRFTISRDNAKNTVYLQMNSLKPQDTAVYYCAAATSYGKSEYDYWGQGTQVTVSS | high polyreactivity
QDQLVESGGGLVQAGGSLRLSCAASGFTFDRYAMGWYRQAPGKERELVAAITSSGGSTYYADSVKGRFTISRDNAKNTVYLQMNSLKPEDTAVYYCAVAYSSHTSYYSWGQSTQVTVSS | low polyreactivity
QDQLVESGGGLVQAGGSLRLSCAASGFTFGDNAMGWYRQAPGKERELVAAITSSGSTNYADSVKGRFTISRDNAKNTVYLQMNSLKPEDTAVYYCNAEDSVDAPVYKDLGSEYDSWGQGTQVTVSS | low polyreactivity
QDQLVESGGGLVQAGGSLRLSCAASGFTFGYYAMGWYRQAPGKERELVAAISSGSSTYYADSVKGRFTISRDNAKNTVDLQMISLTPEDTAVFYCAATGDNNTPSGYDYWGQGTQVTVSS | high polyreactivity
QDQLVESGGGLVQAGGSLRLSCAASGFTFNANAMGWYRQAPGKERELVAAITRSGGRTYYADSVKGRFTISRDNAKNTVYLQMNSLKPEDTAVYYCANLVTNGRYDSWGQGTQVTVSS | high polyreactivity
QDQLVESGGGLVQAGGSLRLSCAASGFTFVRYAMVWYRQAPGKERELVAAISSSGGSTYYADSVKGRFTISRDNAKNTVYLQMNSLKPEDTAVYYCADGPFYRFTDGRYKSLDYCGQGTQVTVSS | high polyreactivity
QDQLVESGGGLVQAGGSLRLSCAASGFTFYLYAMGWYRQAPGKERELVAAINGGGSSTYYADSVKGRFTISRDNAKTTVYLEMNSLKPEDTAVYYCNAVYYVVYVKEFDYWGQGTQVTVSS | high polyreactivity
QDQLVESGGGLVQAGGSLRLSCAASGFTFYPYAMGWYRQAAGKERELVASITNGGSTNYADSVKGRFTISRDNAKNTVYLQMNSLKPEDTAVYYCNAAYGFYASRYWYASYDYWGQGTQVTVSS | low polyreactivity
QDQLVESGGGLVQAGGSLRLSCAASGFTFYQYAMGLYIQAPGKERELVASITWNGGSTFYADSVKGRFTISRDNAKNTVYFQMNSLKPEDTAVYYCNVAYVYGSFRRRPMGYWGQGTQVTVSS | high polyreactivity
QDQLVESGGGLVQAGGSLRLSCAASGGIFPAYAMGWYSQAPGKERELVASISANGGRTYYADSVKGRFTISRDNAKNTVYLQMNSLKPEDTAVYYCNKRWLHWSGYDYWGQGTQVTVSS | high polyreactivity
QDQLVESGGGLVQAGGSLRLSCAASGGTFGLNAMGWYRQAPGKERELVADIDGRGGCTYYADSVKGRFTISRDNAQNTVYLQMNSLKPEDTAVYYCAARAPFLSVPTELDYWGQGTQVSVSS | low polyreactivity
QDQLVESGGGLVQAGGSLRLSCAASGIIFAWYVMGWYRQAPGKERELVATITSSGGRTYYADSVKGRFTISRDNAKNTVYLQMNSLKPEDTAVYYCNAALTRAFKHSTGYDYWGQGTQVTVSS | low polyreactivity
QDQLVESGGGLVQAGGSLRLSCAASGIIFDYYAMGWYRQAPGKERELVASISWSGGGTYYADSVKGRFTISRDNAKNTVYLQMNSLKAEDTAVYYCAADGSTVNAPRWSDPYDYWGQGTQVTVSS | low polyreactivity
QDQLVESGGGLVQAGGSLRLSCAASGIIFYDYAMGWYRQAPGKERELVAAITSNGDNTYYADSVKGRFTISRDNAKNTVYLQMNSLKPEDTAGYYCAVDGSFAADFDNYLEEYGYWGQGTQVTVSS | low polyreactivity

From the nanobody polyreactivity screen of Harvey et al. (2022)
